# Experimental data reported in article PMC9482650, “Quantitative fragmentomics allow affinity mapping of interactomes” (Nature Communications, 2022).
# T1: GRIP1_4, Q9Y3R0
# T1 sequence (Q9Y3R0 467-571, limits assumed, looked up): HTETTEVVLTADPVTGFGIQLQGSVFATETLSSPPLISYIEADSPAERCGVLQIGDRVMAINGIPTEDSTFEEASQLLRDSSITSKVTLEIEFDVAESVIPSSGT
# T2: APBA3_1, O96018
# T2 sequence (O96018 389-490, limits assumed, looked up): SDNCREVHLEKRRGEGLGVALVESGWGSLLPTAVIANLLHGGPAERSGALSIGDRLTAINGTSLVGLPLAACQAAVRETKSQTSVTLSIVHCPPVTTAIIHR
# T3: DLG3_1, Q92796
# T3 sequence (Q92796 125-227, limits assumed, looked up): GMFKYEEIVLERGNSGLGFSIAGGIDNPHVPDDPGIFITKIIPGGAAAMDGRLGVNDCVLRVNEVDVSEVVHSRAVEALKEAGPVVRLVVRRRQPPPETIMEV
# T4: DFNB31_1, Q9P202
# T4 sequence (Q9P202 135-233, limits assumed, looked up): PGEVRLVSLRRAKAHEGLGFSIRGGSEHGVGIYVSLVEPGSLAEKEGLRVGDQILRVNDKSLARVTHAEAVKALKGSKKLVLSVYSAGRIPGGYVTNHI
# T5: LRRC7, Q96NW7
# T5 sequence (Q96NW7 1440-1537, limits assumed, looked up): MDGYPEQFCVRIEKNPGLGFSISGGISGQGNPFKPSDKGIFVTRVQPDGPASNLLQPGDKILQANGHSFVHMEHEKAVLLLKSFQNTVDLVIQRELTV
# T6: SYNJ2BP, P57105
# T6 sequence (P57105 8-110, limits assumed, looked up): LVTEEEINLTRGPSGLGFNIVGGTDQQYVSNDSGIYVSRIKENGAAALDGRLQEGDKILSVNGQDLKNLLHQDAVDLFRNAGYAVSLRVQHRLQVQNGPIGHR
# T7: ARHGEF11, O15085
# T7 sequence (O15085 42-136, limits assumed, looked up): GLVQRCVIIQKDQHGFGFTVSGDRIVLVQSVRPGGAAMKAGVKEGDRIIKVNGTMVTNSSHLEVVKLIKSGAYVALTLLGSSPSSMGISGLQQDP
# T8: HTRA3, P83110
# T8 sequence (P83110 354-453, limits assumed, looked up): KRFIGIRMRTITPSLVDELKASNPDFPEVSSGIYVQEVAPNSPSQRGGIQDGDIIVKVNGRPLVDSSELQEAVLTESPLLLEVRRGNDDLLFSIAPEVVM
# T9: PDZD2_2, O15018
# T9 sequence (O15018 329-429, limits assumed, looked up): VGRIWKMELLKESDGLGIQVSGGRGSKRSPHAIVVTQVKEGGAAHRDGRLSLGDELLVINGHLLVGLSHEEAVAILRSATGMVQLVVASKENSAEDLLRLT
# T10: LNX2_3, Q8N448
# T10 sequence (Q8N448 463-564, limits assumed, looked up): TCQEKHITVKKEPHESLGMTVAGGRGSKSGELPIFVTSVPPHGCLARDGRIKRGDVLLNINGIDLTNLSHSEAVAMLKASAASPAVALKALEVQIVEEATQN
# Experiments:
# Experiment in all cases: holdup assay
# Parameters in all cases: key: below the threshold = too weak to quantify, mostly under pKd 3.1 to 4
# Conditions in all cases: plain residues with an end cap or a label only (N-terminal biotin on a linker: ahx)
# GRIP1_4, Q9Y3R0 = molecular target: T1, GRIP1_4, Q9Y3R0
# MAGI1_1, Q96QZ7 = molecular target: MAGI1_1, Q96QZ7
# SNX27, Q96L92 = molecular target: SNX27, Q96L92
# APBA3_1, O96018 = molecular target: T2, APBA3_1, O96018
# DLG3_1, Q92796 = molecular target: T3, DLG3_1, Q92796
# PTPN3, P26045 = molecular target: PTPN3, P26045
# DFNB31_1, Q9P202 = molecular target: T4, DFNB31_1, Q9P202
# LRRC7, Q96NW7 = molecular target: T5, LRRC7, Q96NW7
# GRIP2_6, Q9C0E4 = molecular target: GRIP2_6, Q9C0E4
# DLG4_2, P78352 = molecular target: DLG4_2, P78352
# IL16_1, Q14005 = molecular target: IL16_1, Q14005
# GRIP2_4, Q9C0E4 = molecular target: GRIP2_4, Q9C0E4
# SYNJ2BP, P57105 = molecular target: T6, SYNJ2BP, P57105
# IL16_4, Q14005 = molecular target: IL16_4, Q14005
# SCRIB_1, Q14160 = molecular target: SCRIB_1, Q14160
# ARHGEF11, O15085 = molecular target: T7, ARHGEF11, O15085
# PARD3_3, Q8TEW0 = molecular target: PARD3_3, Q8TEW0
# NHERF4_4, Q86UT5 = molecular target: NHERF4_4, Q86UT5
# HTRA3, P83110 = molecular target: T8, HTRA3, P83110
# FRMPD3, Q5JV73 = molecular target: FRMPD3, Q5JV73
# MAGI3_2, Q5TCQ9 = molecular target: MAGI3_2, Q5TCQ9
# PDZD2_2, O15018 = molecular target: T9, PDZD2_2, O15018
# LNX2_3, Q8N448 = molecular target: T10, LNX2_3, Q8N448
# MAST2, Q6P0Q8 = molecular target: MAST2, Q6P0Q8
# LNX1_2, Q8TBB1 = molecular target: LNX1_2, Q8TBB1
# TJP2_1, Q9UDY2 = molecular target: TJP2_1, Q9UDY2
# GRID2IP_2, A4D2P6 = molecular target: GRID2IP_2, A4D2P6
# Chain of GRID2IP_2, A4D2P6 (A4D2P6 272-370): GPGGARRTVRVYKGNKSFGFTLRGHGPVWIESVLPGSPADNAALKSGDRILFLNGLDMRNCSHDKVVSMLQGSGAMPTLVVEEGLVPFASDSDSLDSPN
# Chain of MAGI1_1, Q96QZ7 (Q96QZ7 1-106): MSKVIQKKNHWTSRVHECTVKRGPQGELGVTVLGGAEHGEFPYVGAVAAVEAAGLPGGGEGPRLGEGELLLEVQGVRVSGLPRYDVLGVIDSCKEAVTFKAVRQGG
# Chain of GRIP2_4, Q9C0E4 (Q9C0E4 446-548): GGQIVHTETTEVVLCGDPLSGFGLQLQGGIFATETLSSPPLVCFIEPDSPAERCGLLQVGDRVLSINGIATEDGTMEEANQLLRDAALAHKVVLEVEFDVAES
# Chain of IL16_4, Q14005 (Q14005 1229-1329): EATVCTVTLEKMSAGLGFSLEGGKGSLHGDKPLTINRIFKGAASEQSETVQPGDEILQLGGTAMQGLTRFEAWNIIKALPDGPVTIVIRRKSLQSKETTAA
# Chain of DLG4_2, P78352 (P78352 155-259): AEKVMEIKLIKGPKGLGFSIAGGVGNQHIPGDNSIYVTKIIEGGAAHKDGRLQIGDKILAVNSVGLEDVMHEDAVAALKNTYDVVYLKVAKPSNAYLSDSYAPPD
# Chain of GRIP2_6, Q9C0E4 (Q9C0E4 648-740): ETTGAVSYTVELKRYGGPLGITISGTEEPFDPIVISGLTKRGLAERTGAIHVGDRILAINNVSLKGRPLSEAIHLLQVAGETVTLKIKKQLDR
# Chain of LNX1_2, Q8TBB1 (Q8TBB1 371-470): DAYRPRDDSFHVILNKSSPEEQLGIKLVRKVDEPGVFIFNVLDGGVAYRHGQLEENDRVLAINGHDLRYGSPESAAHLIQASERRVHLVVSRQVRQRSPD
# Chain of PTPN3, P26045 (P26045 505-587): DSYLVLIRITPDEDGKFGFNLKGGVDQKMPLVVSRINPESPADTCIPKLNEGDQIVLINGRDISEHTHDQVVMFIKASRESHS
# Chain of TJP2_1, Q9UDY2 (Q9UDY2 24-128): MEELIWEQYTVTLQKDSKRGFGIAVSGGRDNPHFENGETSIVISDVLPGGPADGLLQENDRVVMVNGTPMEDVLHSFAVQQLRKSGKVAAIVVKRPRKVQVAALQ
# Chain of IL16_1, Q14005 (Q14005 210-306): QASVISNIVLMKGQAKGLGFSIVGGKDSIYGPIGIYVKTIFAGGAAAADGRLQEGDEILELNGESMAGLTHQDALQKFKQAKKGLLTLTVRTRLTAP
# Chain of SCRIB_1, Q14160 (Q14160 718-814): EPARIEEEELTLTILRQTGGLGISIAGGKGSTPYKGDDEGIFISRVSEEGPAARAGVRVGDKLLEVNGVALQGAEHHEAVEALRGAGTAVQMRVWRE
# Chain of FRMPD3, Q5JV73 (Q5JV73 12-100): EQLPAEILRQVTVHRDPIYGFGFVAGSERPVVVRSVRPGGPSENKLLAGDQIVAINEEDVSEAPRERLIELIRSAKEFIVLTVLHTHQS
# Chain of NHERF4_4, Q86UT5 (Q86UT5 464-550): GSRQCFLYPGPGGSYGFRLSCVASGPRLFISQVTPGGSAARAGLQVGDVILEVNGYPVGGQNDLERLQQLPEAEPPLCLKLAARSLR
# Chain of MAGI3_2, Q5TCQ9 (Q5TCQ9 398-503): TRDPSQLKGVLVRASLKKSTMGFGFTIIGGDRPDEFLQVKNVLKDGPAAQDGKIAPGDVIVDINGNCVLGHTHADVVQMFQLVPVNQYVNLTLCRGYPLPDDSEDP
# Chain of MAST2, Q6P0Q8 (Q6P0Q8 1099-1202): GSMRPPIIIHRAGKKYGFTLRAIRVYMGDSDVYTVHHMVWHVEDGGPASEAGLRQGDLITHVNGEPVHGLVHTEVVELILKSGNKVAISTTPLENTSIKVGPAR
# Chain of PARD3_3, Q8TEW0 (Q8TEW0 582-685): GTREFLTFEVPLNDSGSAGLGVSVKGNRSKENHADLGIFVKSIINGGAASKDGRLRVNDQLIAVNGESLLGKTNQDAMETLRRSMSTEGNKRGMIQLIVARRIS
binder,measurement,setting,value
"GIFPTLTSPL [SHROOM3, Q8TF72]",pKd,"GRIP1_4, Q9Y3R0",below the threshold
same,pKd,"MAGI1_1, Q96QZ7",below the threshold
same,pKd,"SNX27, Q96L92",3.91
same,pKd,"APBA3_1, O96018",below the threshold
same,pKd,"DLG3_1, Q92796",below the threshold
same,pKd,"PTPN3, P26045",3.99
same,pKd,"DFNB31_1, Q9P202",below the threshold
same,pKd,"LRRC7, Q96NW7",below the threshold
same,pKd,"GRIP2_6, Q9C0E4",below the threshold
same,pKd,"DLG4_2, P78352",below the threshold
same,pKd,"IL16_1, Q14005",below the threshold
same,pKd,"GRIP2_4, Q9C0E4",below the threshold
same,pKd,"SYNJ2BP, P57105",below the threshold
same,pKd,"IL16_4, Q14005",below the threshold
same,pKd,"SCRIB_1, Q14160",below the threshold
same,pKd,"ARHGEF11, O15085",3.49
same,pKd,"PARD3_3, Q8TEW0",below the threshold
same,pKd,"NHERF4_4, Q86UT5",below the threshold
same,pKd,"HTRA3, P83110",below the threshold
same,pKd,"FRMPD3, Q5JV73",below the threshold
same,pKd,"MAGI3_2, Q5TCQ9",below the threshold
same,pKd,"PDZD2_2, O15018",3.48
same,pKd,"LNX2_3, Q8N448",below the threshold
same,pKd,"MAST2, Q6P0Q8",4.25
same,pKd,"LNX1_2, Q8TBB1",below the threshold
same,pKd,"TJP2_1, Q9UDY2",below the threshold
same,pKd,"GRID2IP_2, A4D2P6",below the threshold
